Measured values: IntAct's records for PubMed 18832153

B1: Structural maintenance of chromosomes protein 1A (Homo sapiens), Q14683 (parent)
chain: MGFLKLIEIENFKSYKGRQIIGPFQRFTAIIGPNGSGKSNLMDAISFVLGEKTSNLRVKTLRDLIHGAPVGKPAANRAFVSMVYSEEGAEDRTFARVIVGGSSEYKINNKVVQLHEYSEELEKLGILIKARNFLVFQGAVESIAMKNPKERTALFEEISRSGELAQEYDKRKKEMVKAEEDTQFNYHRKKNIAAERKEAKQEKEEADRYQRLKDEVVRAQVQLQLFKLYHNEVEIEKLNKELASKNKEIEKDKKRMDKVEDELKEKKKELGKMMREQQQIEKEIKEKDSELNQKRPQYIKAKENTSHKIKKLEAAKKSLQNAQKHYKKRKGDMDELEKEMLSVEKARQEFEERMEEESQSQGRDLTLEENQVKKYHRLKEEASKRAATLAQELEKFNRDQKADQDRLDLEERKKVETEAKIKQKLREIEENQKRIEKLEEYITTSKQSLEEQKKLEGELTEEVEMAKRRIDEINKELNQVMEQLGDARIDRQESSRQQRKAEIMESIKRLYPGSVYGRLIDLCQPTQKKYQIAVTKVLGKNMDAIIVDSEKTGRDCIQYIKEQRGEPETFLPLDYLEVKPTDEKLRELKGAKLVIDVIRYEPPHIKKALQYACGNALVCDNVEDARRIAFGGHQRHKTVALDGTLFQKSGVISGGASDLKAKARRWDEKAVDKLKEKKERLTEELKEQMKAKRKEAELRQVQSQAHGLQMRLKYSQSDLEQTKTRHLALNLQEKSKLESELANFGPRINDIKRIIQSREREMKDLKEKMNQVEDEVFEEFCREIGVRNIREFEEEKVKRQNEIAKKRLEFENQKTRLGIQLDFEKNQLKEDQDKVHMWEQTVKKDENEIEKLKKEEQRHMKIIDETMAQLQDLKNQHLAKKSEVNDKNHEMEEIRKKLGGANKEMTHLQKEVTAIETKLEQKRSDRHNLLQACKMQDIKLPLSKGTMDDISQEEGSSQGEDSVSGSQRISSIYAREALIEIDYGDLCEDLKDAQAEEEIKQEMNTLQQKLNEQQSVLQRIAAPNMKAMEKLESVRDKFQETSDEFEAARKRAKKAKQAFEQIKKERFDRFNACFESVATNIDEIYKALSRNSSAQAFLGPENPEEPYLDGINYNCVAPGKRFRPMDNLSGGEKTVAALALLFAIHSYKPAPFFVLDEIDAALDNTNIGKVANYIKEQSTCNFQAIVISLKEEFYTKAESLIGVYPEQGDCVISKVLTFDLTKYPDANPNPNEQ
partner: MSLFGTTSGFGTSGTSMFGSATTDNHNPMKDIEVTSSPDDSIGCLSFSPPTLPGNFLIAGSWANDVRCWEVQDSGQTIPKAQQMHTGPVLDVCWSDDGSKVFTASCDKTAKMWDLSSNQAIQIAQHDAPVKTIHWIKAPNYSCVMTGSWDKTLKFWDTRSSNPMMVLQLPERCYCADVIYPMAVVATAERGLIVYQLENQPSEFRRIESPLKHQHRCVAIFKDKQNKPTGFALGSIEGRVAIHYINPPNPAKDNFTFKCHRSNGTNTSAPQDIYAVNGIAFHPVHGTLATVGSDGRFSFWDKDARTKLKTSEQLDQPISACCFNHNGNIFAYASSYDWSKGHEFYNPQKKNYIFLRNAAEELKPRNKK

Variants of: B1
Settings: with rae1l_human RAE1, P78406

effect of a mutation on the interaction | Variant
decreasing interaction | S966A
decreasing interaction | S957A
